# Assay results as given in the nanobody polyreactivity screen of Harvey et al. (2022).
# Experiment: yeast display, Sf9 membrane polyspecificity reagent, FACS + sequencing; frameworks hold sequencing errors
# Procedure, shortened: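 Sorting gates, low and high (top ~1%), were placed on anti-HA fluorescence to track expression and on streptavidin fluorescence to track reagent binding. A clone's polyreactivity label is taken from the gate it came out of. The reagent was 10% biotinylated, detergent-solubilized Sf9 membrane, applied for 1 hour at 4 °C to galactose-induced yeast display cells.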
row,Sequence,polyreactivity (PSR sort gate)
1,QVQLVESGGGLVQAGGSLRLSCAASGSTFRINAMGWYRQAPGKERELVAAITRGGSTNYADSVKGRFTISRDNAKNTVYLQMNSLKPEDTAVYYCAAGLYSWSGYASYNSAYGYWGQGTQVTVSS,low polyreactivity
2,QVQLVESGGGLVQAGGSLRLSCAASGSTFVRYAMGGYRQAPGKERELVAAISWSGASTYYADSVKGRFTISRDNAKNTVYLQMNSLKPEDTAVYYCAARSRWYDAAGYPKYYYWGQGTQVTVSS,high polyreactivity
3,QVQLVESGGGLVQAGRSLRLSCAASGSTFSSYGMGWYRQAPGKDRELDASITIRGGSTYYADSVKGRFTISRDNAKTTVCIQMNSLKPEDTAVYYCAADVTNRGTWVIYGYYYWGQGTQVTVSS,low polyreactivity
4,QVQLVESGGGLVQAGGSLRLSCAASGNIFAPNAMGWDRQAPGKERELVAAISRSGGSTHYADSVKGRFTISRDNAKNTVYLQMNSLKPEDTAVYYCAAGWYGRYTSKMGYWGQGTQVTVSS,high polyreactivity
5,QVQLVESGGGLVQAGGSLRLICAASGITFVYYAMGWYRQAPGKERELVAAISKNSGSTYYADSVKGRFTISRDNAKNTVYLQKNSLNPEDTAVYYCAAEEGYPWVRYNYWGQGTQVTVSS,high polyreactivity
6,QVQLVESGGGLVQAGGSLRLSCAASGRIFLQYAMGWYRQAPGKERELVAGISSRGGSTYYADSVKGRFTISRDNAKNTVYLQMNSLKPEDTAVYYCAAQTKRIRYVYKHYYWGQGTQVTVSS,high polyreactivity
7,QVQIVESGGGLVQAGGSLRLSCAASGRIFHWYTMGWYRQAPGKERELVAAISGSGGSTHYADSVKGRFTISRDNAKNTVYLQMNSLKPEDTAVYYCAADDGFYGQDLDYWGQGTQVTVSS,low polyreactivity
8,QVQLVESVGGLVQAGGSLRLSCSASGRTFSYYTMGWYRQAPGKERELVADINTSVGSTDYADSVKGRFTISRDTAKNTVYLQMNSLKPEDTAVYYCQLIRRGHDYWGQGTQVTVSS,high polyreactivity
9,QDQHVESVGGLVQAGGSLLLSCAASGFTLRGYALGWDRQAPGKERELVADISGGGSTDYADSVKGRFTISRDNAKNTVYLQMNSLKPLDTAVYYCAAYGYLWWEMDYWGQGTQVTLSS,high polyreactivity
10,QVHVVESGGGLVQAGGSLRLSCAASGRTFYGYAMGWYRQAPGKERELVAGITSGGNTNYADSVKGRFTISRDNAKNTVYLQMNSLKPEDTAVYYCAADRYSFRGDYYWGQGTQVTVSS,low polyreactivity
11,QVQLVESGGGLVQAGGSLRLSCAASGITFNGNAMGWYRQAPGKERELVAAITRTGTDTSYADSVKGRFTISRDNAKNTVYLQMNSLKPEDTAVYYCAAPPYNGYRYGTTGYYWGQGTQVTVSS,low polyreactivity
12,QVQLVESGGGLVQAGGSLRLSCAASGLTFAYYGMGWYRQAPGKEMELVAAITSSGGSTYYADSVKGRFTISRDNAKNTVYLQMNSLKPEDTAVYYCAAFVRQYGFDYWGQGTQVTVSS,low polyreactivity
13,QDQLVDSGGGLVQAGGSLRLSCAASGFNFGYYAMGWYRQAPRKERELVAAISRSGGRTYYADSVKGRFTISRDNAKNTVYLQMNILNPEDTAVYYCNARHYLSAYDYWGQGTQVTVSS,high polyreactivity
14,QVQLVESVGGLVQAGGSLRLSCAASGRIFAPNAMGRYRQAPGKERELVAAITSRGSRTYYADSVKGRFTISRDIAKNTVYLQMKSLKPEDTAVYYCATPYRAPWGTARNYGLYYYWGQGTQVTVSS,high polyreactivity
15,QVQLVESGGGLVQAGGSLRLSCVASGRIFLTYAMGWYRQAPGKERELVAAISYSGASTYYADSVKGRFTISRDNAKNTVYLQMNSLKPEDTSVYYCATERVGTPRMNYWGQGTQVTVSS,high polyreactivity
16,QVQLVESGGGLVQAGGSLRLSCAASGSTFTWYGKGWYRQAPGKERELVAAISGSGGRTYYADSVKGRFTISRDNAKNTVYLQMNSLKPEDTAVYYCNADPANPFGTEFEYWGQGTQVTVSS,high polyreactivity
17,QVQLVESGGGLVQAGGSLRLSCAASGRTFISNVIGWYRKAPGKERDLVAAITWRGGRTHYADSVKGRFTISRDNAKITVYLQMNSLKPEDTAVYYCAARYIPIQYPSYRTWGGYSWGQGTQVTVSS,high polyreactivity
18,QVQLVESGGGLVQAGGSLRLSCASSGLTFALYAMGWYRQAPGKEREFVAAITGSGGSTYYADSVKGRFTISRDNAKHTVYLQMNSLKPEYTAVYYCNKLFYRWRIVDKYYYWGQGTQVTVSS,high polyreactivity
19,QVQLVDSRGGLDQAGGSHRLSCAASGSTFSTNVMGWYRQAPGKERELVAAISISGTTTYYADSVKGRFTISRDNAKNTVYLQMNSLKPEDTAVYYCAAENYVAWTWHDYWGQGTQVTVSS,high polyreactivity
20,QVQLEESGGGLVQAGGSLRLSCAAYGFTIVGNTMGWYRQAPGKERELVASINTNGGSTYYADSVKGRFTISRDNAKNTVYLQMNSLKPEDTAVYYCNARSWYPYDYWGQGTQVTVSS,low polyreactivity
21,QVQLVESGGGLVQAGGSLRLSCAASGSIFVFYDMGWYRQAPGKERELVATISSGGGGTYYTDSVKGRFTISRDNAKNTVYLQMNSLKPEDTAVYYCAAEGDKYGKGYGYWGQGTQVTVSS,low polyreactivity
22,QVQLVESGVGIVQAGGSLRISCAASGTNFLFYAMGWYRQAPGKERELVATISRGGSTYYADSVKGRFTISRDNAKNTVYFQMKSLKPEDTAVYYCAARATRVTIAPRYGYWGQGTQVTVSS,low polyreactivity

row,Sequence,polyreactivity (PSR sort gate)
1,QVQLEESGGCLVQAGGSLRLSCAASGSIFRHNVMGWYRPAPGKERELVAAISGGGGRTYYADSVKGRFTISRDNAKNTVYLQMNSQKPEDTAVYYCNAVGPGLYQGDSTDSRYNYWGQGTQVTVSS,high polyreactivity
2,QVQLVESGGGLVQAGGSLRLSCAASGFTFVQYAMGWYRQAPGKERELVATISKSGGITYYADSVKGRFTISRDNAKNTVYLQMNSLKPEDTAVYYCAAAWYYSSRGFHATWGHDYWGQGTQVTVSS,low polyreactivity
3,QVHLVESGGGLVQAGGSLRLSCAASGFTFDFYAMGWYRQAPGKERELVAAISKNDGTTYYADSVKGRFTISRDNAKNTVYLQLNSLKPEDTAVYYCAAESGYPVYTYVSSGDYWGQGTQVTVSS,low polyreactivity
4,QVQLVESGGGLVQAGGSLRLSCAASGFTVTWYAMAWYRQAPGKERELVASISRSGGSTYYADSVKGRFTISRDNAKNTVSLQMISLKPEDSAVYYCAAVSRTRSYDYWRQGTQVTVSS,high polyreactivity
5,QVQLVESGGGLVQAGGSLRLSCAASGFILGQYAMGWYRQAPGKERELVAAISGSSSTTYADCVKGRFTISRDNAKNTVYLQMNSLKPEDTAVYYCAAYYWYVTYFRREIAYEYWGQGTQVTVSS,low polyreactivity
6,QVQLVESGGGLVQAGGSLGLSCAASGGILQSYAMGWYRQAPGKERELVATITYSAGSTYYADSVKGRFTISRDNAKNTVYLQMKSLKPEDTAVYVCAARRIPPARYKGYYYWGQGTQLTVSS,high polyreactivity
7,QVQLVDSGGGLVQAGGSLRLSCAASGSTFGPYAMGWYRQAPGKERELVAAISGSGGTTYYADSVKGRFTMSRDNSKNTVYLQMNSLKPEDTAVYDCAAYPRWTYWGYVERYYWGQGTQVTVSS,high polyreactivity
8,QVQLVESGGGLVQAGGSLRLSCAASGFTFVINDMGWYRQAPGKERELVADITSGGDTNYADSVKGRFTISRDNAKNTVYFQMNSLKPEDTAVYYCAADIYPDWIYLLFGYWGQGTQVTVSS,low polyreactivity
9,QVHLVESGGGLVQAGGSLRLSCAASGSIFFNNAMGWYRQPPGKERELVAAINYGNGSTYYADSVKGRFTISRDNAKNTVYLQMNSLKPEDTAVYYCNADYTGTRSDSVTPEYEYWGQGTQVTVSS,low polyreactivity
10,QVQLVESGGGLVQAGGSLRLSCAASGFTFTTNAMGWYRQAPGKERELVAAISFSGGTTYYADSVKGRFTISRDNAKNTVYLQMNSLKPEDTAVYYCPAQPGQAWWSTEHDDYWGQGTQVTVSS,low polyreactivity
11,QVQLVESGGGLVQAGGSLRLSCAASGRTFSRYAMGWYRQAPGKERELVAGISRSGTSTYYADSVKGRFTFSRDNAKNTVYLQMNSLKPEDTAVYYCAAYYEYRRDYWGQGTQVTVSS,high polyreactivity
12,QVQLVESGGALVQAGGSLRLSCAASGSIFYWYAMGWYRQAPGKEREFVAGITGRGGSTYYADSVKGRFTISRDNAKNTVYLQMNSLKPEDTAVYYADFVKYGKYYQRYDYWGQGTQVTVSS,high polyreactivity
13,QVQLVESGGGLVQAGGSLRLSGAASGRIFVRNSMGWYRQAPGKERELVAAISSNGGSTRYADSVKGRFTISRDNAKNTVYLQMNSQKPEDTAVYYCNAYYSHSPRYLKYDYWGQGTQVTVSS,high polyreactivity
14,QVQLVESGGGLVQAGGSLRLSCAASGSTLVSYAMGWYRQSPGKERELVATISWRGGSTYYADSVKGRFTISRDNAKNTVYLQMNSLKPEDTAVYYCAADLWHSQYYYGYEYWGQGTQVTVSS,low polyreactivity
15,QVQLLESGGGLVQAGGSLRLSCAASGRTFTGYVMGWYRQATGKERELVAGISRRGGRTYYADSVKGRFTISRDNAKNTVYLQMNSLKPEDTAVYYCAAAVTSSDPYDYWGQGTQVTVSS,high polyreactivity
16,QVQLVESGGGLDQAGGSLRLSCAASGFTFYPYTMGWYRQAPGKERELVADITYDSTYYADSVKGRFTISRDNAKNTVFLQMNSLKPADTAVYYCNATGYSVSRSAYWYGWYDYWGQGTQVTVSS,low polyreactivity
17,QVQLVESGGGLVQAGGSLRLSCAASGRTFRYYDMGWYRQAPGKEREFVAAITWRGGSTYYADSVKGRFTISRDNAKNTVYLQMNSLKPEDTAVYYCATDSLRLYGGKRDLYYWGQGTQVTVSS,low polyreactivity
18,QVQLVESGGGLVQAGGSLRLSCAASGSIFGYYPMGWYRQAPGKERELVAAITSGGNTYYADSVKGRFTISRDNAKNTVYLQMNSLKPEDTAVYYCNAVWRTRDYDYWGQGTQVTVSS,low polyreactivity
19,QVQLVESGGGVVQAGGSLRLSCAASGRTFPGNAMGWYRQAPGKERELVASITWSTGSTYYADSVKGRFTISRDNAKNTVYLQMNSLKPEDTAVYYCAADQSVRSYQYSVHRGYWGQGTQVTVSS,high polyreactivity
20,QVQLVESGGGLVQAGGSLRLSCAASGSTFKGNAMGWYRQAPGKERELVAAINRSGTSTYYADSVKGRFTISRDNAKNTVYLQMNSLKPEDTAVYYCAADKAPYSTEGDSWGQGTQVTVSS,high polyreactivity
21,QVQLVESGGGLVQAGGSLRLSCAASGSIFNYNTMGWYRQAPGKERELVADISWSGGSTYYADSVKGRFTISRDNAKNTVYLQMNSLKPEDTAVYYCAADFGLFPYVGTGYYYWGQGTQVTVSS,low polyreactivity
